Measured values from patent US20140044674A1.

Target: IL-10R on freshly isolated human blood monocytes (human) (UniProt Q13651)
Experiment: cell-based or functional assay

IL-10R on freshly isolated human blood monocytes (human), sequence (Q13651 22-578, chain 1 of 2): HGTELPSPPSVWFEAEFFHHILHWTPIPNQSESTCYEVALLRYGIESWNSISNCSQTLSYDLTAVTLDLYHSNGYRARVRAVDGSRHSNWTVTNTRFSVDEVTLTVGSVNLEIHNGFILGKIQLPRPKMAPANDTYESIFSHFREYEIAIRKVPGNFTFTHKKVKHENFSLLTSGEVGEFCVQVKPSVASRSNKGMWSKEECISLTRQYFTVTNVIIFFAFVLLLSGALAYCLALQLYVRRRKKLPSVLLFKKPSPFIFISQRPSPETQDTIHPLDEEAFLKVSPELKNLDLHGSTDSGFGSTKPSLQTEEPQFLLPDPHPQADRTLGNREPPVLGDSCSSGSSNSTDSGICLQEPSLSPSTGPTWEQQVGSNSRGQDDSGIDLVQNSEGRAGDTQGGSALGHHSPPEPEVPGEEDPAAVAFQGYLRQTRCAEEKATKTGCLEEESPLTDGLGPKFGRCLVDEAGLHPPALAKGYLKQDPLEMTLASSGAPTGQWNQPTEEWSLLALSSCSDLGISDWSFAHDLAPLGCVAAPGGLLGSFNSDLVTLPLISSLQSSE
IL-10R on freshly isolated human blood monocytes (human), sequence (Q08334 20-325, chain 2 of 2, further chain): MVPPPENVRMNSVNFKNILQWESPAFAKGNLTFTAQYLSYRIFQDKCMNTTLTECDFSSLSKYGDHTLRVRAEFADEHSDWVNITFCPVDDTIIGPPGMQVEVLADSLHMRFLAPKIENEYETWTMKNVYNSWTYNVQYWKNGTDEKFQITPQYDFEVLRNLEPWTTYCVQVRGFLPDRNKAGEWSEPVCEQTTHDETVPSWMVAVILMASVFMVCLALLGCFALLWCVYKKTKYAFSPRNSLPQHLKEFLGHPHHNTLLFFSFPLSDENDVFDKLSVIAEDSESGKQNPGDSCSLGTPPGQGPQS

Substance: recombinant wild type human IL-10 (from UniProt P22301 19-178) (ligand)
- EC50 [nM] pSTAT3 induction, primary monocytes: 0.017 nM
- EC50 [nM] pSTAT3 induction, primary monocytes, Donor 1: 0.029 nM
- EC50 [nM] pSTAT3 induction, primary monocytes, Donor 2: 0.019 nM
- EC50 [nM] pSTAT3 induction, primary monocytes, Donor 3: 0.021 nM
